Reference: patent publication US20100233154A1, “TARGETED BINDING AGENTS DIRECTED TO HEPARANASE AND USES THEREOF 463” (MedImmune Limited, priority 2008, published 2010)

Experiments:
[1] = molecular target: T1, murine heparanase (Mus musculus, UniProt Q6YGZ1); assay: Cross species capture ELISA, murine heparanase; type: binding; settings: min 0.06, max 0.9 OD units
T1 construct: made in house; host or cells: Hek293 cells (conditioned medium), inferred for the ELISA
T1 sequence (Q6YGZ1 28-535): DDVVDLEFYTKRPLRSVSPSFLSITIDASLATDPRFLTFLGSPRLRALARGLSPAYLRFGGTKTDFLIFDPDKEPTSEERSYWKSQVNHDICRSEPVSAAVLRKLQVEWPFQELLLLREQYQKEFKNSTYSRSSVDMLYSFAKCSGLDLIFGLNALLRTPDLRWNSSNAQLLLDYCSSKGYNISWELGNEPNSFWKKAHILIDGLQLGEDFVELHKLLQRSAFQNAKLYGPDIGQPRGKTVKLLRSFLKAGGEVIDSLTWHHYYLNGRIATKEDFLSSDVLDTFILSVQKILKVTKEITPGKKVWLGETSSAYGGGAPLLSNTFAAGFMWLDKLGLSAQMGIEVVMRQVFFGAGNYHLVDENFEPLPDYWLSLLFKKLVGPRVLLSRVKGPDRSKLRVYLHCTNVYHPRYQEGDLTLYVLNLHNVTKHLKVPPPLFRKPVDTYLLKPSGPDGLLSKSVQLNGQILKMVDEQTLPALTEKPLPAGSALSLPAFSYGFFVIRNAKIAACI
Experimental: (§1) Initially, cross species binding to human, murine and cynomolgus heparanase was determined in an ELISA assay in which heparanase was captured onto plates using a rabbit anti-heparanase antibody (Raybiotech, Cat. IP-14-155). Exhaustive supernatants were added to the plates at a final dilution of 1:5 and bound antibody detected with a rabbit anti-human IgG Fc.

[2] = system: MCF7-Hpa1#19 xenograft; assay: Subcutaneous xenograft tumour growth, MCF7-Hpa1#19; type: in vivo, SCID mice; settings: once weekly i.p.; 10E9.1 at 7.5 or 15 mg per kg
Experimental: MCF7-Hpa1#19 and HCT116 tumour cells were harvested from sub-confluent cultures. A total of 5×10^6 (MCF7-Hpa1#19) or 10^7 (HCT116) tumour cells were inoculated subcutaneously into the flank of male SCID mice. HCT116 tumour cells were implanted in PBS; […] cells were implanted in PBS containing 50% matrigel.
When tumours had attained ˜200 mm^3, tumour bearing mice were randomised into treatment groups and dosed with the following; PBS; an isotype matched control IgG2 antibody, 15 mg per kg; anti-heparanase antibody 10E9.1, 7.5 or 15 mg per kg. All treatments were administered once weekly i.p. Tumour growth was measured twice per week using calipers and tumour volumes calculated according to an ellipsoid volume is formula (3.142/6×length×width×width) from measures of the largest tumour diameter and two opposing widths (FIG. 11).

[3] = molecular target: T2, human heparanase (Homo sapiens, UniProt Q9Y251); assay: Cross species capture ELISA, human heparanase; type: binding
T2 sequence (Q9Y251 36-543): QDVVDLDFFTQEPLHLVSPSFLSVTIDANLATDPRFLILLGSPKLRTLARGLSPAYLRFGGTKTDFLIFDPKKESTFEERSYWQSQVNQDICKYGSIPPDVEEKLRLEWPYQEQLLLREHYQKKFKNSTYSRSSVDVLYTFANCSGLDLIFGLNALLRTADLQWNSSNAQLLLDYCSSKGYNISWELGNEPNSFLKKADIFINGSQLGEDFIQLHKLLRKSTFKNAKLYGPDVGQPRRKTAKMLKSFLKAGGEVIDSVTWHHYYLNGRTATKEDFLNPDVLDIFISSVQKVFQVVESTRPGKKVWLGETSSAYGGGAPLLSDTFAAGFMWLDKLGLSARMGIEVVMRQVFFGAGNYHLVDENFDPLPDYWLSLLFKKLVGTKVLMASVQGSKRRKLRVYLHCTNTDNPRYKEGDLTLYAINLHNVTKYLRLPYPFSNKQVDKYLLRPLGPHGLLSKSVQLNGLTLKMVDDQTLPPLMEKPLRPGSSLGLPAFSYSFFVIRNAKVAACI
Experimental: as §1

[4] = system: precursor (65 kDa) and active (50 kDa) heparanase; assay: Immunoprecipitation and Western blotting of heparanase from cell lysates; type: binding, human; settings: 10 μg antibody, 400 μg lysate, MCF7 and MDA MB231 parental and heparanase transfected cells
Experimental: Briefly, protein lysates (400 μg in RIPA lysis buffer—137 mM NaCl, 20 mM Tris pH7.4, 10% glycerol, 1% Triton, 0.5% Sodium deoxycholate, 0.1% SDS, 2 mM EDTA, 1 mM dithiothreitol, 4 mM pefabloc, 10 mM glycerol-2-phosphate, 5 mM NaF and protease inhibitor cocktail) from both parental and heparanase transfected cells were incubated with 10 μg IgG2 control or anti-heparanase (10E9.1) antibodies for 1 hour at 4° C. Following immunoprecipitation with protein G agarose beads and washing with RIPA buffer, samples were separated on 10% bis-tris gels and transferred to nitrocellulose for Western blotting. Heparanase was detected using an anti-heparanase polyclonal antibody (Biochain Cat. No. Z5010104), that recognises both precursor and active heparanase.

[5] = system: HCT116 human colorectal tumour cells; assay: FACS binding to cell surface heparanase, HCT116; type: cell-based; settings: 5 or 10 μg per ml, 2 hrs at 37° C.
Experimental: Although heparanase is found as a secreted protein, a proportion of heparanase is found in conjunction with cell surface heparan sulfate. The ability of anti-human heparanase antibodies to bind to cell surface heparanase was tested in a FACS assay. HT1080 human fibrosarcoma cells, HCT116 human colorectal tumour cells and B16F10 AP3 murine melanoma cells were each seeded into 6-well plates and cultured for 48 hrs prior to the addition of anti-heparanase antibody 10E9.1 or control IgG2 antibody (Sigma Cat. No. 1504-1MG). Antibodies were added to the cells to a final concentration of 5 or 10 μg per ml and incubated with the cells for 2 hrs at 37° C. The cells were then washed with phosphate buffered saline (PBS) and harvested by incubation with trypsin. The cells were pelleted by centrifugation and resuspended in 0.5 ml PBS, 0.1% BSA containing 1/200 dilution of AlexaFluor 488 anti-human IgG. The cells were incubated for 1 hr at room temperature, washed with PBS/BSA, resuspended in PBS and analysed by FACS. […] The differences likely reflect a lower affinity for murine heparanase in addition to any differences in absolute heparanase expression.

Binding to heparanase Mouse [1]: 0.49 OD units
Binding to heparanase Human [3]: 0.63 OD units
B1: 10E9.1: fully human anti-heparanase monoclonal antibody, G2κ; VH SEQ ID NO 2, VL SEQ ID NO 4; ATCC PTA-9489 (antibody, listed as Homo Sapiens, V domains shown)
VH: QVQLVQSGAEVKKPGASVKVSCKVSGYSLTELSIHWVRQAPGKGLEWMGGFDPEDGEIIFAQKFQGRVTLTEDISLDTAYMEVSSLRSEDTAVYYCATEGHDSGDYVGYYYYGLDVWGQGTTVTVSS
VL: DIQMTQSPSSLSASVGDRVTITCRASQDIRNFLAWYQQKPGKLPKLLIYAASTLQSGVPSRFSGSGSGTDFTLTISSLQPEDVASYYCQSHNSVPFTFGPGTKVDIR
notes: fully human anti-heparanase monoclonal antibody, G2κ; ATCC PTA-9489
Tumour growth inhibition [2]: not inhibited
Immunoprecipitation of heparanase from cell lysates [4]: immunoprecipitation of both precursor and active forms of heparanase
Binding to cells by FACS [5]: bind extensively
